The labels stand for the following.
B1: HDV Ribozyme (parent)
chain: GGCCGGCAUGGUCCCAGCCUCCUCGCUGGCGCCGGCUGGGCAACAUUCCGAGGGGACCGUCCCCUCGGUAAUGGCGAAUGGGACCCA

In the series the parent is B1. Description: self-cleavage, relative activity (ratio to wild type); higher = more cleavage; co-transcriptional.
With U72A A87U, the self-cleavage was found to be 0.729.
Under A51U C75G stands 0.344.
G76U G81U: the self-cleavage is 0.462.
Turning to G29C C48U, the self-cleavage turned out to be 0.135.
The same measure for G29U G31C: 0.141.
The same measure for G29A G68A: 0.107; for G5U C14G: 0.185; for C7G C75U: 0.
Under C3A G76C stands 0.604; under C75U A83U, 0.199; under C15G C24G, 0.196.
As for C13G U27A, the self-cleavage worked out at 0.391.
Turning to C44G C63U, the self-cleavage stood at 0.81.
The same measure for G54U A70U: 0.997; for C4A G31U: 0.
As to C22A G54C, the self-cleavage came out at 0.281.
Turning to C32A U65C, the self-cleavage was found to be 0.
The same measure for C61A G76A: 1.02.
Turning to C21G U72A, the self-cleavage was found to be 0.0723.
The same measure for C3G C18A: 0.0542; for C13A G74U: 0.0443; for C24A U60C: 0.702.
Under A16C A43U stands 0.0831; under U9C G11U, 0.383.
As to U65A G80U, the self-cleavage turned out to be 0.279.
As to U12C G31A, the self-cleavage came out at 0.237.
Take C13G G73C: the self-cleavage turned out to be 0.0396.
For the variant C22U C63A, the self-cleavage stood at 0.697.
On to A56G C85G, for which the self-cleavage came to 0.831.
As to C18A U20C, the self-cleavage worked out at 0.
Turning to U12C C22U, the self-cleavage came out at 0.231.
Turning to C13A G34C, the self-cleavage was determined as 0.151.
Under G28A C36G stands 0.0519; under G34C C66A, 0.35; under U60A G81A, 0.514.
Under G54A C62G stands 1.06; under C44U G73U, 0.172.
Take C7G G50A: the self-cleavage turned out to be 0.612.
Take G31A A71C: the self-cleavage was determined as 0.251.
The same measure for C13A C44A: 0.119; for A8G C21U: 0.201; for U23C A51C: 1.08.
On to U46C A78U, for which the self-cleavage is 0.302.
Under G1U G39U stands 0.337; under C44G G82A, 0.309; under A8G U60C, 1.16.
As for G2C A56C, the self-cleavage was 0.0678.
Under G17C C85U stands 0.156; under A51G G76U, 0.942.
Under C4U C63G stands 0.396.
The same measure for G31C C32A: 0.0875.
Take C15G G67C: the self-cleavage came out at 0.415.
Under G73U G81A stands 0.178.
On to C13G G31C, for which the self-cleavage amounted to 0.
The same measure for G34C A51G: 0.346; for A42G U60C: 0.617; for C30G C48U: 0.241.
As to C7U A71U, the self-cleavage was 0.677.
As to U23C G54A, the self-cleavage was determined as 0.888.
On to C19U U60G, for which the self-cleavage amounted to 0.182.
Under G67U G82U stands 0.227.
The same measure for A8U G76C: 0.965.
For C24G A45G, the self-cleavage worked out at 0.222.
The same measure for G17C U37A: 0; for C7A C57A: 0.597; for C64U C84U: 0.785.
Turning to U20C G76C, the self-cleavage worked out at 0.0773.
Regarding C14U, the self-cleavage is 1.09.
As to U9A G76C, the self-cleavage was found to be 1.07.
With C26A C62A, the self-cleavage came to 1.15.
The same measure for C66U A87U: 1.23.
In the case of C4U G52U, the self-cleavage is 0.831.
Take A56U A87U: the self-cleavage is 1.08.
As to G28C U79A, the self-cleavage came out at 0.
For the variant U20G G38C, the self-cleavage turned out to be 0.0489.
In the case of C3A C24U, the self-cleavage was found to be 0.0755.
For the variant C15G C66A, the self-cleavage came out at 0.665.
A16G C49G: the self-cleavage was determined as 0.875.
Take U27C A42U: the self-cleavage turned out to be 0.475.
G10U A56G: the self-cleavage worked out at 0.689.
Under C19G A83U stands 0.0504; under C19G G50A, 0.073.
As to G6C G68C, the self-cleavage came out at 0.364.
The same measure for C13U C64G: 0.567.
Under C24U G38U stands 0.115; under U9A U20G, 0.151.
Consider G25C A45C, for which the self-cleavage was 0.0875.
Consider G38C U79G, for which the self-cleavage turned out to be 0.
Under G2C C44A stands 0.0449.
Under U9A G68C stands 1.16; under C18A G35C, 0.147.
The same measure for G10U A43G: 0.0604; for A45U U47G: 0.867; for G11C C86G: 0.312.
As for C4A U47A, the self-cleavage amounted to 0.156.
As to U37G G80A, the self-cleavage amounted to 0.0308.
The same measure for U12C G38C: 0.0475; for A71C G74A: 0.453; for C63A G74U: 0.515.
Under G39A C61G stands 0.337; under U9C C84U, 0.415; under G1U U9A, 0.389.
For the variant C24U G74C, the self-cleavage is 0.332.
Consider C19A U23A, for which the self-cleavage stood at 0.0302.
The same measure for C58A G73U: 0.383; for C62U G80U: 0.253.
Under C24G A71G stands 0.102; under U27G U60C, 0.804.
The same measure for A8U C49A: 1.13.
On to G53C G54U, for which the self-cleavage came out at 1.08.
Under G68A C75U stands 0.0615; under U72A A83C, 0.219; under A51C G80A, 0.345.
Under C33U C41A stands 0.7; under C24G C75U, 0.0554.
As for G1U A43C, the self-cleavage was 0.425.
Turning to C22A U79C, the self-cleavage amounted to 0.18.
Consider U23C G40C, for which the self-cleavage stood at 0.0852.
Under C63G G80C stands 0.147.
Under C7A C86A stands 0.804; under C36A G54C, 0.241; under G28C C84U, 0.0396.
On to U69C C86A, for which the self-cleavage came to 0.906.
Under C21U C61U stands 0.319; under G40U G68U, 0.858.
The same measure for C4A A77C: 0.0462; for U9A C61G: 0.682.
The same measure for C14A A70U: 0.344; for G11C C63A: 0.314; for G6C U46G: 0.
Take C7A A43G: the self-cleavage was found to be 0.
The same measure for C66G U79A: 0.808; for G34U U69G: 0.0361.
Consider U12A A70G, for which the self-cleavage came to 0.277.
As to G38C U60G, the self-cleavage was determined as 0.113.
Turning to C24G A83U, the self-cleavage amounted to 0.141.
Under U27G G76U stands 0.855; under C58U C62A, 0.969.
The same measure for G6C C36U: 0.175; for C7A C75A: 0.0923.
Under G40C U72A stands 0.124.
Regarding C19U G55A, the self-cleavage came out at 0.225.
Under C14G A56C stands 0.646.
Take U60G C62G: the self-cleavage turned out to be 0.703.
For G29U G80A, the self-cleavage is 0.0934.
Under C18U C57U stands 0.867; under U46A G59U, 0.674.
U12C C19U: the self-cleavage stood at 0.0415.
Under G29A C58U stands 0.197; under C64U U65C, 0.914; under C33G U65A, 0.156.
Under C64U U69G stands 1.07; under G40U U72A, 0.181.
With U23A G73A, the self-cleavage came out at 0.575.
The same measure for G29A C44A: 0.198; for U72G C75U: 0.0415; for C75A C84G: 0.0707.
Turning to A8U U72C, the self-cleavage turned out to be 0.443.
Under C19U C30G stands 0.0936; under G40U G59C, 0.76.
Under A70G A83U stands 0.511; under G17A G81C, 0.204.
The same measure for A42U G68A: 0.407; for G67A U79C: 0.509.
For the variant G38U G53U, the self-cleavage was found to be 0.342.
Take G10A G11C: the self-cleavage was 0.256.
Under U46C A56U stands 1.09.

(Values after the RNAGym collection of RNA variant scans (doi:10.7554/elife.80360).)
